Data: the supplement of paper PMC9170038

System: MS2 coat protein
Assay: apparent KD of MS2 coat protein; designed switch direction (-1 OFF switch, 1 ON switch): -1; higher = weaker reporter binding
Summary of the method: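 Apparent KD, taken as the median over clusters for each design, was obtained by curve-fitting normalised cluster fluorescence. Designed RNA switches had been transcribed on Illumina chips by stalled E. coli RNA polymerase and titrated with SNAP-549-labelled MS2 coat protein, doubling from 0.7 or 1.5 nM to 3 µM.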

[1] = Eterna round: R95, input ligand: microRNA oligo, concentration not stated
[2] = input ligand: microRNA oligo, concentration not stated
[3] = Eterna round: R95, input ligand: FMN 200 uM
[4] = Eterna round: R95, input ligand: none

GCACGGUAAGUGAGGAUAUACCUCUGGAUACAGAGGUAGAAGGCACAUGAGGAUCACCCAUGUUCCAGCCGUGC [Fiskers BMX 4 - 86] (puzzle: Brourd's mod of Exclusion 4)
apparent KD of MS2 coat protein [1]: 14.7 nM

GGGCUGUCAGGAUAUCCCGGGCCCGGGUAAACCCGGGUUUGGGAGAAGGGACAUGAGGAUCACCCAUGUGGCCC [-39.8, -38.8 kcal, A 20%, 5cbis-0] (Eterna round: R97, puzzle: Exclusion 4)
apparent KD of MS2 coat protein (input ligand: FMN 200 uM): 34.8 nM
apparent KD of MS2 coat protein (input ligand: none): 34.1 nM

UCAUGGGAGCGAGGAUAUAGCCCAUGUGAAGAACUAGAAGGCGCAGACAUGAGGAUCACCCAUGUGUUCAUGAGGAGGUGGACA (Eterna round: R96, puzzle: Exclusion NG 1)
apparent KD of MS2 coat protein (input ligand: FMN 200 uM): 215 nM
apparent KD of MS2 coat protein [2]: 82.5 nM
apparent KD of MS2 coat protein (input ligand: none): 83.4 nM

CGCCAUCGAGUGAGGAUAUCAGGUAAAGGUGUACAUGAGAAGGCACUUGAGGAUCACCCAAGUAUUAAAGAAAA [Mareat] (Eterna round: R97, puzzle: Brourd's mod of Exclusion 4)
apparent KD of MS2 coat protein (input ligand: FMN 200 uM): 356 nM
apparent KD of MS2 coat protein (input ligand: none): 48.3 nM

AAGUAGUGUGUGAGGAUAUUGGUGGAAUGACAUAUUAAGAAGGCACAUGAGGAUCACCCAUGUGGGUUGACACG [Brourd's EX4 #19] (Eterna round: R97, puzzle: Brourd's mod of Exclusion 4)
apparent KD of MS2 coat protein (input ligand: FMN 200 uM): 269 nM
apparent KD of MS2 coat protein (input ligand: none): 98.4 nM

GUGUGCACGCUGCGAUCCUACAUGAGGAUCACCCAUGUGGUCUGGUGGCGUGGGUCACCGGACUUGGCUCGUCUUGC [salish99_S_TOV1_R5_072] (Eterna round: R97, puzzle: Sensor, turn-off variant 1)
apparent KD of MS2 coat protein (input ligand: FMN 200 uM): 35.6 nM
apparent KD of MS2 coat protein (input ligand: none): 35.8 nM

UUUUUAUUUGAAGGAUAUACUUAACAUGAGGAUCACCCAUGUGGUGUUGUGAGUGAGUGAGUUUAGUAGAAGGUCAAUUCUUUU [JMF's solution 85] (Eterna round: R96, puzzle: Exclusion NG 2)
apparent KD of MS2 coat protein [2]: 391 nM

AUAGUCUGGCAAGGAUAUAGGAAAGGAAGUGUACUAGAAGGUGCGCAGACAUGAGGAUCACCCAUGUGAGCCGACGAAAUAAUA [PowerStrip EXNG 1.17] (Eterna round: R96, puzzle: Exclusion NG 1)
apparent KD of MS2 coat protein (input ligand: FMN 200 uM): 523 nM
apparent KD of MS2 coat protein [2]: 88.5 nM
apparent KD of MS2 coat protein (input ligand: none): 141 nM

CCGGAAAUAGAGGAUAUAGUACUGGAUACAGUACUAGAAGGCUAUACAUGAGGAUCACCCAUGUGUCCUACCGG [Fiskers Ex 6 - 62] (puzzle: Exclusion 6)
apparent KD of MS2 coat protein [1]: 13.9 nM

AGAAAUGCCCAUGGCCACAAGCUUUUUGCCUGUCUUACCACAUGAGGAUCACCCAUGUGACAUGGGCUCCUGAUAAU [Didilaeren] (puzzle: Sensor v3, turn-off variant 2)
apparent KD of MS2 coat protein [3]: 15.8 nM
apparent KD of MS2 coat protein [1]: 305 nM
apparent KD of MS2 coat protein [4]: 14.3 nM

GUGAGCAGACGGAGAUCCUACAUGAGGAUCACCCAUGUCUCACUAGCUUUUUGCUCGUCUUAUCCUCCUCUGUUCUC [Elimod 25 - Jieux - Sensor, turn-off variant 1] (Eterna round: R97, puzzle: Sensor, turn-off variant 1)
apparent KD of MS2 coat protein (input ligand: FMN 200 uM): 176 nM
apparent KD of MS2 coat protein (input ligand: none): 201 nM

CUUUUGUGAGGAUAUCAGUAGUAAAAAAAUAAAAUUACUACUGAGAAGGCACAUGAGGAUCACCCAUGUUCCUC [EX4 344: Super Stable 44] (Eterna round: R96, puzzle: Exclusion 4)
apparent KD of MS2 coat protein (input ligand: FMN 200 uM): 343 nM
apparent KD of MS2 coat protein [2]: 36.3 nM
apparent KD of MS2 coat protein (input ligand: none): 42.4 nM

UUUUAACAUGAGGAUCACCCAUGUGAGGAUAUCGAAAUUUAUAUUAAUAUUUAUAUAACGAGAAGGCACAUUUU [JMF 55] (puzzle: Exclusion 1)
apparent KD of MS2 coat protein [1]: 65.3 nM

CUUCACCCACUAGAGCUCACCCACAAACCUACUCUAGUGACAUGAGGAUCACCCAUGUUUUUUGCCCGUCUUAUCUU [Qugeenerce] (puzzle: Sensor v3, turn-off variant 2)
apparent KD of MS2 coat protein [3]: 40.2 nM
apparent KD of MS2 coat protein [1]: 184 nM
apparent KD of MS2 coat protein [4]: 41.4 nM

AGGUCACAUGAGGAUCACCCAUGUGAGGAUAUUUACUCAAGAGCUUCGGCUCUCAAGUGAAGAAGGCGCAAUGA [EX1 #53] (Eterna round: R97, puzzle: Exclusion 1)
apparent KD of MS2 coat protein (input ligand: FMN 200 uM): 34.6 nM
apparent KD of MS2 coat protein (input ligand: none): 32.8 nM

UCGAUGUAAGGAUAUCGUGCAAGUUUCAAAAGAGGCUUGUGCGAGAAGGUACAUGAGGAUCACCCAUGUAGGUU [Omei Ex4 B7] (Eterna round: R97, puzzle: Exclusion 4)
apparent KD of MS2 coat protein (input ligand: FMN 200 uM): 207 nM
apparent KD of MS2 coat protein (input ligand: none): 75.6 nM

GCAGUAUGAGUUAGGAUAUGAUGAUUUGAAAUGGGUCAGAAGGAACUUGAGGAUCACCCAAGUAAUGAAUUGGU [JR_BMEx4_Sub073] (Eterna round: R97, puzzle: Brourd's mod of Exclusion 4)
apparent KD of MS2 coat protein (input ligand: FMN 200 uM): 94.6 nM
apparent KD of MS2 coat protein (input ligand: none): 52.7 nM

UAUUCGCAAGCAAAUGGGUACAUGAGGAUCACCCAUGUGCUCGUCUUAUAAGGUACUGUGACGAAAGUCACGGUACC [mod--Eli9] (Eterna round: R97, puzzle: Sensor, turn-off variant 1)
apparent KD of MS2 coat protein (input ligand: FMN 200 uM): 20.9 nM
apparent KD of MS2 coat protein (input ligand: none): 20.3 nM

UGUAACCUGGUAAGGAUAUAGUUGCAAGGAGUCAACUAGAAGGUACAUGAGGAUCACCCAUGUCUACGGAUAUC [Eternabot (L2) Solution 91] (Eterna round: R97, puzzle: Brourd's mod of Exclusion 4)
apparent KD of MS2 coat protein (input ligand: FMN 200 uM): 20.6 nM
apparent KD of MS2 coat protein (input ligand: none): 17.3 nM

AAUAACAGAGGAUAUACUAUUUUAUGUGUUUGUUAUUUUAAACAUGAGGAUCACCCAUGUAGAAGGCUGAUUGA [JMF 72] (puzzle: Exclusion 2)
apparent KD of MS2 coat protein [1]: 41 nM

CUUAGACAUGAGGAUCACCCAUGUGAGGAUAUGAAAUUAAUUAAGUAUGAAGUAUGAAUCAGAAGGCACAUAUG [Mat - Mod of Hyphema D34] (puzzle: Exclusion 1)
apparent KD of MS2 coat protein [3]: 61.7 nM
apparent KD of MS2 coat protein [1]: 92.1 nM
apparent KD of MS2 coat protein [4]: 81.6 nM

UGAUCAGACCGAGGAUAUACAUGUAGGACGCACGUGAGUGCGUCCAUUACAUGAGGAUCACCCAUGUAGAAGGCGGUCUGAUCU [JL ENG2 1.93] (Eterna round: R96, puzzle: Exclusion NG 2)
apparent KD of MS2 coat protein (input ligand: FMN 200 uM): 331 nM
apparent KD of MS2 coat protein [2]: 133 nM
apparent KD of MS2 coat protein (input ligand: none): 157 nM

AAAAAACAAGGAUAUACGCACGAGGAUUGUCUUAAUUUUUGACAUGAGGAUCACCCAUGUAGAAGGUGUUAAAA [JR_Exclusion2_Sub014] (puzzle: Exclusion 2)
apparent KD of MS2 coat protein [1]: 76.5 nM

GAAGAAGAGAGAAAAGAAAACAUGAGGAUCACCCAUGUGAGAAGAUGAGGGUGUAACAGGCUUUAUGCUCGUCUUAU (puzzle: Sensor v3, turn-off variant 1)
apparent KD of MS2 coat protein [3]: 33.6 nM
apparent KD of MS2 coat protein [1]: 120 nM
apparent KD of MS2 coat protein [4]: 40.1 nM

UACAUGAGGAUCACCCAUGUUUUGUCGUGUAUGGUAUUUAUCUAGGAUAUCAAUUGAUUUAAUUAUGAGAAGGAGAAUAUUAAU [JMF's solution 61] (Eterna round: R96, puzzle: Exclusion NG 3)
apparent KD of MS2 coat protein [2]: 29.3 nM

CAUACUGAAGUUAGGAUAUUCGGACGUAUACGGAUGGAGAAGGGACAUGAGGAUCACCCAUGUAGAUAGUAAAG [EX-4 Malc #12] (puzzle: Brourd's mod of Exclusion 4)
apparent KD of MS2 coat protein [3]: 22.7 nM
apparent KD of MS2 coat protein [1]: 23.1 nM
apparent KD of MS2 coat protein [4]: 22.3 nM

AAAAAACAAGGAUAUACGAAGGAGGGUUGUCUUAAUUUUUGACAUGAGGAUCACCCAUGUAGAAGGUGUUAAAA [JR_Exclusion2_Sub012] (puzzle: Exclusion 2)
apparent KD of MS2 coat protein [3]: 146 nM
apparent KD of MS2 coat protein [1]: 186 nM
apparent KD of MS2 coat protein [4]: 188 nM

GGUGCGUAUGUGAGGAUAUGCUGGUCCUUGGAUCAGCAGAAGGCACAUGAGGAUCACCCAUGUGGUGUCGUGCC [salish99_Bmod_Ex4_019] (Eterna round: R96, puzzle: Brourd's mod of Exclusion 4)
apparent KD of MS2 coat protein (input ligand: FMN 200 uM): 132 nM
apparent KD of MS2 coat protein [2]: 741 nM
apparent KD of MS2 coat protein (input ligand: none): 1050 nM

UGUACGAUGCGUGCUGACAUGCGUCGUGCAGCAGGUGAUACAUGAGGAUCACCCAUGUCCUCAUUUGCUCGUCUAGU [Mat - Sensor v3 - Turn-off var 2 - D24] (puzzle: Sensor v3, turn-off variant 2)
apparent KD of MS2 coat protein [3]: 72.5 nM
apparent KD of MS2 coat protein [1]: 467 nM
apparent KD of MS2 coat protein [4]: 78.4 nM

GCUAGUCAUGUCAGGAUAUGCAGAACCUUGGUUCUGCAGAAGGGACAUGAGGAUCACCCAUGUGCCUAACUAGC [Mat - Exclusion 4 - JL Mod - D15] (Eterna round: R97, puzzle: Brourd's mod of Exclusion 4)
apparent KD of MS2 coat protein (input ligand: FMN 200 uM): 294 nM
apparent KD of MS2 coat protein (input ligand: none): 40.3 nM

GGAGGUGAGGUAAGGAUAUCCUCCUCGAAAGAGGAGGAGAAGGUACAUGAGGAUCACCCAUGUAAGGAAGGAGG [AK-MS2ROC-r4-Bmoexclusion4-11] (Eterna round: R97, puzzle: Brourd's mod of Exclusion 4)
apparent KD of MS2 coat protein (input ligand: FMN 200 uM): 152 nM
apparent KD of MS2 coat protein (input ligand: none): 54.2 nM

CAUGUCCAACGAGGAUAUGGGACAGGAAGUGUACCAGAAGGCGUACGGACAUGAGGAUCACCCAUGUCGCGCGGUGCGAUGUGG [MOD Nando EXNG 1.1] (Eterna round: R96, puzzle: Exclusion NG 1)
apparent KD of MS2 coat protein (input ligand: FMN 200 uM): 47 nM
apparent KD of MS2 coat protein [2]: 23.8 nM
apparent KD of MS2 coat protein (input ligand: none): 91.7 nM

CGGGUUCGUGUUAGGAUAUGCACGCACCCGUUGCGGCAGAAGGAACAUGAGGAUCACCCAUGUGAAUAAGAAAG [BmEX4 A.21] (Eterna round: R97, puzzle: Brourd's mod of Exclusion 4)
apparent KD of MS2 coat protein (input ligand: FMN 200 uM): 17.1 nM
apparent KD of MS2 coat protein (input ligand: none): 15.5 nM

GACUGACAUGAGGAUCACCCAUGUAAGGAUAUAGGGAACGUCGUUCCGCAACCCGCGCCUAGAAGGUACAAGGU [EX1 C.11] (Eterna round: R97, puzzle: Exclusion 1)
apparent KD of MS2 coat protein (input ligand: FMN 200 uM): 18.2 nM
apparent KD of MS2 coat protein (input ligand: none): 16.1 nM
